According to patent US20160137744A1 (ONCOMED PHARMACEUTICALS, published 2016):
Read-outs that look alike come from different tables or passages of the source.

Key:
[1] = molecular target: full-length human MET (FL-MET) on cells (human) (UniProt P08581); assay: FACS competition, biotin-HGF on MET-transfected HEK-293T cells; antibody at 10 µg/ml
[2] = molecular target: full-length human MET (FL-MET) on cells (human) (UniProt P08581); assay: FACS competition, biotin-HGF on MET-transfected HEK-293T cells; antibody at 0.16 µg/ml
[3] = molecular target: full-length human MET (FL-MET) on cells (human) (UniProt P08581); assay: FACS blocking assay: MET-transfected HEK-293T cells pre-incubated with the agent, then biotin-HGF (blocked ligand) + PE-streptavidin; inhibition versus the average of the two positive controls
[4] = molecular target: T1, human MET (soluble analyte in Biacore) (human, UniProt P08581 25-932); assay: SPR (Biacore 2000), antibody captured by anti-human antibody, human MET injected
Description: (§1) The KD of monovalent version of 73R009, monovalent anti-MET antibody 5D5, and anti-MET/FZD8-Fc bispecific agent 315B6 were determined using a Biacore 2000 system from Biacore LifeSciences (GE Healthcare). A goat anti-human antibody (Invitrogen H10500) was coupled to a carboxymethyl-dextran (CM5) SPR chip using standard amine-based chemistry (NHS/EDC) and blocked with ethanolamine. Antibodies were diluted to a concentration of 10 μg/ml in HBS-P-BSA (0.01M HEPES pH7.4, 0.15M NaCl, 0.005% v/v Polysorbate 20, 10 μg/ml BSA) and captured onto the chip via the anti-human antibody. Human MET was serially diluted 2-fold from 300 nM to 37.5 nM in HBS-P-BSA and injected sequentially over the captured anti-MET antibodies. MET association and dissociation was measured at each concentration. After each antigen injection 5 μl of 100 mM H₃PO₄ was injected to remove the antigen-antibody complex and a subsequent injection performed. Kinetic data were collected over time and were fit using the simultaneous global fit equation to yield affinity constants (KD values) for each agent.
(§2) In addition, the bispecific agent 315B6 appeared to have stronger affinity for human MET than anti-MET antibody 5D5.

[5] = molecular target: full-length human MET (FL-MET) on cells (human) (UniProt P08581); assay: FACS blocking assay: MET-transfected HEK-293T cells pre-incubated with the agent, then biotin-HGF (blocked ligand) + PE-streptavidin; % cells in gate P2
[6] = molecular target: T1, human MET (soluble analyte in Biacore); assay: SPR (Biacore 2000), agent captured by anti-human antibody, human MET injected
Description: as §1, §2

[7] = molecular target: full-length human MET (FL-MET) on cells (human) (UniProt P08581); assay: FACS blocking assay: MET-transfected HEK-293T cells pre-incubated with the agent, then biotin-HGF (blocked ligand) + PE-streptavidin; % cells in gate P2; remark: listed apart in the source
[8] = molecular target: full-length human MET (FL-MET) on cells (human) (UniProt P08581); assay: FACS blocking assay: MET-transfected HEK-293T cells pre-incubated with the agent, then biotin-HGF (blocked ligand) + PE-streptavidin; inhibition versus the average of the two positive controls; remark: listed apart in the source

T1 sequence (P08581 25-932 limits assumed): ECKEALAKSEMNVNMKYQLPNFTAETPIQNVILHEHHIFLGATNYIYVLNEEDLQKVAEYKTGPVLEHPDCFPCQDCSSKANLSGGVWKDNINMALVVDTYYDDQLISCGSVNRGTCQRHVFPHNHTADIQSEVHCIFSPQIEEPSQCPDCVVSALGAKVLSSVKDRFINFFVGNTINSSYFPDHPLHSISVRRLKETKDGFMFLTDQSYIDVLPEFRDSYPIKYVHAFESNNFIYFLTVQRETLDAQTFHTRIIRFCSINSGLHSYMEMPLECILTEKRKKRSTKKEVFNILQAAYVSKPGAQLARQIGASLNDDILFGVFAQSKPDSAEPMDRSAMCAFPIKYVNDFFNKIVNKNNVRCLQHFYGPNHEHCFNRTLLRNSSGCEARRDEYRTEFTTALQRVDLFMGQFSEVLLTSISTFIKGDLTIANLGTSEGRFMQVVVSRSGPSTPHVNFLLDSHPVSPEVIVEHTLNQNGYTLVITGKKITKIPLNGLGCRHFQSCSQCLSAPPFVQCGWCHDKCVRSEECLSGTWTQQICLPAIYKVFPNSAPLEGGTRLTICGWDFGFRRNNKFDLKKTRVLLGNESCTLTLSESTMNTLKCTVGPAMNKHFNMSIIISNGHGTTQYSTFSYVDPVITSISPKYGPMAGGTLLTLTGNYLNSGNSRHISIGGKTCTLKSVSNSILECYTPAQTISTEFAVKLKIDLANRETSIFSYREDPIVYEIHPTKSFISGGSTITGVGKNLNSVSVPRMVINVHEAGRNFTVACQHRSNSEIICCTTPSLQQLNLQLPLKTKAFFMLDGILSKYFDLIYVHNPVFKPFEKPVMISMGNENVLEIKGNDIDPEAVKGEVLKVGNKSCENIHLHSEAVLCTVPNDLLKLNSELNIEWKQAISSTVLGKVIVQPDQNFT
Chain of full-length human MET (FL-MET) on cells (human) (P08581 25-1390 limits assumed): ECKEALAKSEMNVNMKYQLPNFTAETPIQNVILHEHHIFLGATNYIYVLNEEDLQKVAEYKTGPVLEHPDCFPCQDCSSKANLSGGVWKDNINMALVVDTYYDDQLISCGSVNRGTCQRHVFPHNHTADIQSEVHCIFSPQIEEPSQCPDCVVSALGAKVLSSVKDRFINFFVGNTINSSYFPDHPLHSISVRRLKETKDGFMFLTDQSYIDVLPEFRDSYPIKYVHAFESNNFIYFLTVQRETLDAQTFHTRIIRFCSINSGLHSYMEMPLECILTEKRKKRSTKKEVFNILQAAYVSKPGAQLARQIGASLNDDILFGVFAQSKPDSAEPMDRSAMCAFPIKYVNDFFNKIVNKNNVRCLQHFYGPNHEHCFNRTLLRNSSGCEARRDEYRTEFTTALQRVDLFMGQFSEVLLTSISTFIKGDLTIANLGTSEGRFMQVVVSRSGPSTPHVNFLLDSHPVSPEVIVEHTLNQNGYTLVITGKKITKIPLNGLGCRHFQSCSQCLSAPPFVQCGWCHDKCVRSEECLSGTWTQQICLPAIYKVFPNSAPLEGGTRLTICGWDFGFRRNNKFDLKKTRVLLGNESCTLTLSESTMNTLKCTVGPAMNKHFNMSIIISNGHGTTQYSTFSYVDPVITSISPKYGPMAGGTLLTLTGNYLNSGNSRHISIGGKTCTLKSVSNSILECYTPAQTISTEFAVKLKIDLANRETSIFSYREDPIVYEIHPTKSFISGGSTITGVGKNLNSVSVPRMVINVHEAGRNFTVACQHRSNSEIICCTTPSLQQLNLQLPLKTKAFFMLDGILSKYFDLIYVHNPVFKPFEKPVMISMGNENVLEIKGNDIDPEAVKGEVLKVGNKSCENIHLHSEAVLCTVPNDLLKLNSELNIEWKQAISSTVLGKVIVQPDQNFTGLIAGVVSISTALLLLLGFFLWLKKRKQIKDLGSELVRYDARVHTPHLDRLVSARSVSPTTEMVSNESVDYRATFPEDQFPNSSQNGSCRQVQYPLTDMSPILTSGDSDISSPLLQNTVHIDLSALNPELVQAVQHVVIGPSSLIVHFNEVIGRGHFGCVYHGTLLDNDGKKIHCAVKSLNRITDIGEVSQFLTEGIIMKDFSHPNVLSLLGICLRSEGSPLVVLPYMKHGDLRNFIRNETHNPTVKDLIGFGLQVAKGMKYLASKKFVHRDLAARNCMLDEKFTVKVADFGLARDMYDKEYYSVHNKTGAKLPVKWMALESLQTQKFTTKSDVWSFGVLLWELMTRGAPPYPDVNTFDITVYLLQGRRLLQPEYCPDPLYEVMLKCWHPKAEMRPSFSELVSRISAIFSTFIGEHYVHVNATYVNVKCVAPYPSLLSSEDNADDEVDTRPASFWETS

Molecule: monovalent anti-MET antibody 5D5
- percent reduction of HGF binding to MET [1]: 70%
- percent reduction of HGF binding to MET [2]: 28%
- % Inhibition of HGF binding at 0.3 ug/ml agent [3]: 47%
- % Inhibition of HGF binding at 0.625 ug/ml agent [3]: 40%
- % Inhibition of HGF binding at 1.25 ug/ml agent [3]: 57%
- % Inhibition of HGF binding at 2.5 ug/ml agent [3]: 52%
- % Inhibition of HGF binding at 5 ug/ml agent [3]: 67%
- Kd [4]: 7.2 nM
- % Binding of HGF at 0.16 ug/ml agent [5]: 14.3%
- % Binding of HGF at 0.3 ug/ml agent [5]: 10.6%
- % Binding of HGF at 0.625 ug/ml agent [5]: 12%
- % Binding of HGF at 1.25 ug/ml agent [5]: 8.54%
- % Binding of HGF at 2.5 ug/ml agent [5]: 9.61%
- % Binding of HGF at 5 ug/ml agent [5]: 6.67%
- % Binding of HGF at 10 ug/ml agent [5]: 6.31%

B1: anti-MET/FZD8-Fc bispecific agent 315B6 (bispecific antibody, human IgG2, kappa)
heavy: QVQLQESGPGLVKPSETLSLTCTVTGTTITASYAWSWIRQPPGKGLEWMGYISYSGGTDYNPSLKSRITISRDTFKNQFSLKLSSVTAADTATYYCARKGAYWGQGTLVTVSSASTKGPSVFPLAPCSRSTSESTAALGCLVKDYFPEPVTVSWNSGALTSGVHTFPAVLQSSGLYSLSSVVTVPSSNFGTQTYTCNVDHKPSNTKVDKTVERKCCVECPPCPAPPVAGPSVFLFPPKPKDTLMISRTPEVTCVVVDVSHEDPEVQFNWYVDGVEVHNAKTKPREEQFNSTFRVVSVLTVVHQDWLNGKEYKCKVSNKGLPAPIEKTISKTKGQPREPQVYTLPPSREKMTKNQVSLTCLVKGFYPSDIAVEWESNGQPENNYKTTPPMLKSDGSFFLYSKLTVDKSRWQQGNVFSCSVMHEALHNHYTQKSLSLSPGK
light: DIVLTQSPATLSASPGEKVTLTCSASSSVSSSYLYWYQQKPGQAPKLLIYSTSNLASGVPARFSGSGSGTSYSLTISSLEPEDFATYYCHQWSSYPYTFGGGTKLEIKRTVAAPSVFIFPPSDEQLKSGTASVVCLLNNFYPREAKVQWKVDNALQSGNSQESVTEQDSKDSTYSLSSTLTLSKADYEKHKVYACEVTHQGLSSPVTKSFNRGEC
chain: ASAKELACQEITVPLCKGIGYNYTYMPNQFNHDTQDEAGLEVHQFWPLVEIQCSPDLKFFLCSMYTPICLEDYKKPLPPCRSVCERAKAGCAPLMRQYGFAWPDRMRCDRLPEQGNPDTLCMDYNRTDLTTTKVDKTVERKSCVECPPCPAPPVAGPSVFLFPPKPKDTLMISRTPEVTCVVVDVSHEDPEVQFNWYVDGVEVHNAKTKPREEQFNSTFRVVSVLTVVHQDWLNGKEYKCKVSNKGLPAPIEKTISKTKGQPREPQVYTLPPSREEMTKNQVSLTCLVEGFYPSDIAVEWESNGQPENNYKTTPPMLDSDGSFFLYSELTVDKSRWQQGNVFSCSVMHEALHNHYTQKSLSLSPGK
notes: Heterodimer of a monovalent 73R009 arm (heavy + light) and a FZD8 Fri-Fc fusion arm; plasmids ATCC PTA-13609, PTA-13610, PTA-13611; also called bispecific anti-MET/FZD8-Fc agent
- Kd [6]: 1.8 nM

B2: monovalent version of anti-MET antibody 73R009 (antibody, part only; not given: monovalent constant regions and partner arm, V domains shown, not shown: another chain or arm of the molecule; a dimerising Fc or GST)
VH: QVQLQESGPGLVKPSETLSLTCTVTGTTITASYAWSWIRQPPGKGLEWMGYISYSGGTDYNPSLKSRITISRDTFKNQFSLKLSSVTAADTATYYCARKGAYWGQGTLVTVSS
VL: DIVLTQSPATLSASPGEKVTLTCSASSSVSSSYLYWYQQKPGQAPKLLIYSTSNLASGVPARFSGSGSGTSYSLTISSLEPEDFATYYCHQWSSYPYTFGGGTKLEIK
- percent reduction of HGF binding to MET [1]: 72%
- % Binding of HGF at 0.16 ug/ml agent [7]: 8.72%
- % Binding of HGF at 0.3 ug/ml agent [7]: 9.71%
- % Binding of HGF at 0.625 ug/ml agent [7]: 8.03%
- % Binding of HGF at 1.25 ug/ml agent [7]: 7.7%
- % Binding of HGF at 2.5 ug/ml agent [7]: 7.44%
- % Binding of HGF at 5 ug/ml agent [7]: 7.77%
- % Binding of HGF at 10 ug/ml agent [7]: 5.51%
- percent reduction of HGF binding to MET [2]: 56%
- Kd [4]: 1.4 nM
- % Inhibition of HGF binding at 0.3 ug/ml agent [8]: 52%
- % Inhibition of HGF binding at 0.625 ug/ml agent [8]: 60%
- % Inhibition of HGF binding at 1.25 ug/ml agent [8]: 62%
- % Inhibition of HGF binding at 2.5 ug/ml agent [8]: 63%
- % Inhibition of HGF binding at 5 ug/ml agent [8]: 61%

B3: antibody 73R009 (bivalent "parental" antibody) (antibody, human IgG2, kappa, V domains shown)
VH: QVQLQESGPGLVKPSETLSLTCTVTGTTITASYAWSWIRQPPGKGLEWMGYISYSGGTDYNPSLKSRITISRDTFKNQFSLKLSSVTAADTATYYCARKGAYWGQGTLVTVSS
VL: DIVLTQSPATLSASPGEKVTLTCSASSSVSSSYLYWYQQKPGQAPKLLIYSTSNLASGVPARFSGSGSGTSYSLTISSLEPEDFATYYCHQWSSYPYTFGGGTKLEIKR
notes: Humanized, bivalent; also called humanized anti-MET monoclonal antibody
- Kd [4]: 1.1 nM
